Results reported in doi:10.1101/2025.02.21.639491 (bioRxiv, 2025).

Target: the molecule itself
Assay: mass photometry

B1: wild-type mouse PADI6 (peptidyl arginine deiminase 6) (natural protein, UniProt Q8K3V4 1-682, looked up)
chain: MSFQNSLSLSLVNPTHALCMVGMEITLDISKCAPDKCKSFTIRGSPRILIHISSSVIAGKEDTVVWRSMNHPTVALVRMVAPSPTVDEDKVLVSYFCPDQEVPTATAVLFLTGIEISLEADIYRDGQLDMPSDKQAKKKWMWGMNGWGAILLVNCSPNAVGQPDEQSFQEGPREIQNLSQMNVTVEGPTSILQNYQLILHTSEEEAKKTRVYWSQRGSSAYELVVGPNKPVYLLPTFENRRKEAFYVEATEFPSPSFSGLISLSLSLVEKAHDECIPEIPLYKDTVMFRVAPYIFMPSTQMPLEVYLCRELQLQGFVDSVTKLSEKSKVQVVKVYEDPNRQSKWLQDEMAFCYTQAPHKTVSLILDTPRVSKLEDFPMKYTLTPGSGYLIRQTEDHRVASLDSIGNLMVSPPVKAQGKDYPLGRVLIGGSFYPSSEGRDMNKGLREFVYAQQVQAPVELFSDWLMTGHMDQFMCFVPTNDKNNDQKDFRLLLASPSACFELFEQKQKEGYGNVTLFEDIGAEQLLSNGRESKTISQILADKSFREQNTYVEKCISLNRTLLKTELGLEDKDIILIPQLFCLEQLTNVPSNQQSTKLFARPYFPDMLQIIVLGKNLGIPKPFGPKINGTCCLEEKVCGLLEPLGLKCTFIDDFDCYLANIGDVCASAIINRVPFAFKWWKMTP
  stoichiometry N: 2

B2: mouse PADI6 C663A (natural protein, UniProt Q8K3V4 1-682, looked up)
chain: MSFQNSLSLSLVNPTHALCMVGMEITLDISKCAPDKCKSFTIRGSPRILIHISSSVIAGKEDTVVWRSMNHPTVALVRMVAPSPTVDEDKVLVSYFCPDQEVPTATAVLFLTGIEISLEADIYRDGQLDMPSDKQAKKKWMWGMNGWGAILLVNCSPNAVGQPDEQSFQEGPREIQNLSQMNVTVEGPTSILQNYQLILHTSEEEAKKTRVYWSQRGSSAYELVVGPNKPVYLLPTFENRRKEAFYVEATEFPSPSFSGLISLSLSLVEKAHDECIPEIPLYKDTVMFRVAPYIFMPSTQMPLEVYLCRELQLQGFVDSVTKLSEKSKVQVVKVYEDPNRQSKWLQDEMAFCYTQAPHKTVSLILDTPRVSKLEDFPMKYTLTPGSGYLIRQTEDHRVASLDSIGNLMVSPPVKAQGKDYPLGRVLIGGSFYPSSEGRDMNKGLREFVYAQQVQAPVELFSDWLMTGHMDQFMCFVPTNDKNNDQKDFRLLLASPSACFELFEQKQKEGYGNVTLFEDIGAEQLLSNGRESKTISQILADKSFREQNTYVEKCISLNRTLLKTELGLEDKDIILIPQLFCLEQLTNVPSNQQSTKLFARPYFPDMLQIIVLGKNLGIPKPFGPKINGTCCLEEKVCGLLEPLGLKCTFIDDFDCYLANIGDVAASAIINRVPFAFKWWKMTP
  stoichiometry N: 2
